According to article PMC4046987:

Test system: HfqBc (Hfq6) (Burkholderia cenocepacia J2315)
Test: EMSA
Conditions: no MtvR; complexes seen only at 500 nM HfqBc or higher; excess yeast tRNA; 20 mM Tris-Cl pH 8.0, 1 mM DTT, 1 mM MgCl2, 10 mM KCl, 10 mM KH2PO4, excess yeast tRNA, 30 min at 25 C; native 8% PAGE with 10% glycerol

hfqEc full mRNA (5'-UTR + CDS) showed a Kd of 11.6 µM.
